Assay results published in the supplement of paper PMC9170038.

Test system: MS2 coat protein
Assay: apparent KD of MS2 coat protein; higher = weaker reporter binding
Conditions: Eterna round: R107; input ligand: theophylline 2 mM
Procedure, shortened: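 Apparent KD was obtained for each design as the median of normalised binding-curve fits over its clusters. RNA switches transcribed on-chip from Illumina sequencing clusters were titrated with SNAP-549-labelled MS2 coat protein (twofold steps, 0.7 or 1.5 nM to 3 µM) in 100 mM Tris-HCl pH 7.5, 80 mM KCl, 4 mM MgCl2, without or with constant ligand.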

Sequence | apparent KD of MS2 coat protein [µM]
GCUAGGUCUACGGCCGCCACUAGACGUGGGUAAGACAUGAGGAUCACCCAUGUACUACAGGCGGAUAGGACCGGGUAGACCUAGC [SSTB NP+V+V2 #13 +-Same Structure] | 0.101
CUGGACAUGAGGAUCACCCAUGUAAAUCCUCGAGGACCGGUACGGCCGCCACUCGAACGAGUGGCGCGCGAGCGCGCGCUCGCGC [aJa] | 0.0625
AGAUGUAGCGGAAGGAGCGACUUGAGGAUCACCCAAGUCUCCCGUUGUGGGAGUUCCUUAGGUCAGGUAGGUCGCCGUUACGUCA [Omei Arg B SS B v3] | 0.31
UCUCAAGGCCGCUCGGUGCUCCCUGGUGAUACCAGCCAUAUAUCCGGCCCUUGGCAGCACAUGAGGAUCACCCAUGUAGCAGGCG [Sorimaat] | 0.00854
UGUCCGUGAUCGGCCGCCACUCAACAAACCUGUGGAAACUGACAUGAGGAUCACCCAUGUUCUUGGAGGACCGGGAUUGCUUCGA [theeternabot_sameState_MS2_Trp_B_4] | 0.0185
CCUGAUAACUGAAGGAGCGAGAAACCCUACAUGAGGAUCACCCAUGUAUACACGGGAACUUCUCAGGUAGGUCGCAGUUUGUCAG [Adiso] | 0.138

Same assay, conditions: Eterna round: R107; input ligand: tryptophan 2.4 mM

Sequence | apparent KD of MS2 coat protein [µM]
GCACUACAUGAGGAUCACCCAUGUGCAGAUACCAGAGGUGUAUGCCUCCCUUGGCAGCUGAGUAGGUCUGGAGGGCUAUUGGUUU [Same State Theophylline A GF14] | 0.0182
AGCUCGCGAAAGCGAGCAACAUGAUCCGAAGGAGCGGGCGAAAGCCCAGGUAGGUCGCGGACAUGAGGAUCACCCAUGUCUCCUU [MAT - Exclusion Arginine A - Mod of Eli - D13] | 0.077
AGUGUAUCCAUCGAUACCAGCCACCACCGAUAGACCACAUGAGGAUCACCCAUGUUGGGUGGCCCUUGGCAGCGGUGGCUGUGUA [Same State - Theophylline B Attempt #2 (HarryS)] | 0.546
AGCAUGUUAUCAGAUACCAGACAUCUUUUAAUACAUAUUACAUGAGGAUCACCCAUGUUGGUCCCUUGGCAGCUGAAAUAUUUCA [JR_Nu_SSTheophyB_Sub023] | 0.36
UUGGGUUUGUGAAGGAGCGGGAAAGUUUUAUAGUGGAUCCUAACAUGAGGAUCACCCAUGUCCCAGGUAGGUCGCGCGGGUUUGG [12.R] | 0.107
ACAUUUAACUGAAGGAGCGUGAUAUACAUGAGGAUCACCCAUGUGUCUUACAUGAAUAAUUCACAGGUAGGUCGCAGACUAAUGA [JR_ExcArginiB_Sub009] | 0.0321
ACGAACUGUAGUGAUACCAGACGUACAUGAGGAUCACCCAUGUUGUAAACAUGGUGAAUAGUCCCUUGGCAGCACAGUUAGUUCG [#11 Exclusion-TheophyllineB] | 0.299
UGUAUGUGAUCUGAUACCAGCUAGCGGAAACGCAAGCUUGAGGAUCACCCAAGUGGAAUAAGCCCUUGGCAGCAGAUCGCAUACU [Denovo 5 #StaticStem #AlternativeMS2] | 0.376
UUCAAAGGGAACGGUGCUGGUGACAGAGAUACCAGAGUAGUAAUACUCCCUUGGCAGCUCAGAACAUGAGGAUCACCCAUGUAAU [Exclusion Theophylline A GF22] | 0.0176
ACGAACGAUAGUGAUACCAGACGUACAUGAGGAUCACCCAUGUUGUAAACAUGGUUAAUAGUCCCUUGGCAGCACGAUAAGUUCG [JR_ExcTheophyB_Sub003] | 0.802
CCUGCGUUUCUUUUCUUUCGCAGGAAUGAUACCAGUAGGGAAACCUACCCUUGGCAGCAUGGGACAUGAGGAUCACCCAUGUUUU [SSThA NP+V+V2 #4] | 0.181
GUAGCGACGGCGGCCGCCACUCGCACGUGAGGGUAGACCAACCUUCACAUGAGGAUCACCCAUGUGAGGACCGGGCUGUCGCUAC [#15 Exclusion Tryptophan B] | 0.0464
GAAUUUUAUUGAAGGAGCGUCGAAAAUGGGUAAACAUGAGGAUCACCCAUGUAAAGGGAACGACAGGUAGGUCGCAAUAGGAUUC [AstromonsSSArgB#28] | 0.151
UGUAUGUGAUUUGAUACCAGACCAGCUGGUGGUACAUGAGCAUCAGCCAUGUAGGUUUGGGUCCCUUGGCAGCAAAUCGCAUACU [SS Theo B #24 Ms2] | 0.0214
UCGCAUUGCUGCGAUACCAGACAUGAGGAUCACCCAUGUACCAAGGUACGAAAAUAACAUGUCCCUUGGCAGCGCAGCAAUGCGU [MAT - Exclusion Theophlline B - Mod of Eli - D5] | 0.0139
UUAUGCAGGUCGGCCGCCACUACACACAUGAGGAUCACCCAUGUAGUUACUGGGUGAAGUGGCAGUAGGACCGGGACCCGCACAU [Brourdmod21] | 0.383

Sequence | apparent KD of MS2 coat protein [µM]
UCGUGUAUUUCGGAUACCAGUGAAAUCGAUACAUGAGGAUCACCCAUGUGAGAGGAUGUACACCCUUGGCAGCUGUCUGUAUCUG [cxezmullin] | 0.0155
UUAUUUAUAGGCGAUACCAGCCGAAUGGCCGCAAAUCCUAACAUGAGGAUCACCCAUGUCGGCCCUUGGCAGCGCCUAUGGGUUU [XTheo B #27] | 0.0933
UAACGGCACUGAAGGAGCGAGUUGACAAACAUGAGGAUCACCCAUGUUAUGGGUUGUUAAUCUCAGGUAGGUCGCAGUUGUCGUA [Same State Arginine B GF 20] | 0.365
GCACAUGAGGAUCACCCAUGUACAACUGAAGGAGCGAGACAGAACUCAGGUAGGUCGCAGACUGCACAAUUGCGGACGACAUGGG [Exclusion Arginine A GF21] | 0.0301
CUGGACAUGAGGAUCACCCAUGUAAAUCCUCGAGGACCGGUACGGCCGCCACUCGAACGAGUGGCACGCGAGUGCGCACUCGCGU [aLa] | 0.033
ACUAGUUGUGCAGAUACCAGACAUGAGGAUCACCCAUGUUUGGGAUCUUCGGAUCUUCCUGUCCCUUGGCAGCUGUACAUCUAGA [Omei Theo B Exc v3] | 0.125
CUGGACAUGAGGAUCACCCAUGUAAAUCCUCGAGGACCGGUACGGCCGCCACUCGAACGAGUGGCGCGCGAGCGCGCGCUCGCGC [aJa] | 0.0455
AGAUGUAGCGGAAGGAGCGACUUGAGGAUCACCCAAGUCUCCCGUUGUGGGAGUUCCUUAGGUCAGGUAGGUCGCCGUUACGUCA [Omei Arg B SS B v3] | 0.0828
UCUCAAGGCCGCUCGGUGCUCCCUGGUGAUACCAGCCAUAUAUCCGGCCCUUGGCAGCACAUGAGGAUCACCCAUGUAGCAGGCG [Sorimaat] | 0.0281
UUAUAAGCACCUGAUACCAGUAUGAACCCGUACAUGAGGAUCACCCAUGUUAAUUUCUAUUACCCUUGGCAGCAGCCUUUUUCCU [theeternabot_sameState_MS2_Theo_B_2] | 0.0217
UUUACAUGAGGAUCACCCAUGUGCCAUGAUACCAGACAUGAAAAUGUCCCUUGGCAGCAUGAAUAAUCCUCGUCGGGAAACCGAC [Lisen] | 0.0708
UGUAUGUGAUUUGAUACCAGAUCAGCUGGUUAUACAUGAGGAUCACCCAUGUUACUUUGGGUCCCUUGGCAGCAAAUCGCAUACU [SSTheo B #26] | 0.535
UUAAAUGUGACGGAUACCAGCGUGUUGUAGAACAUGAGGAUCACCCAUGUAGUGAUCAUGCGCCCUUGGCAGCUGGUAUGUUUGA [7.aA] | 0.48
AUCGUACCUGGUGAUACCAGCAAUUGCUCGUGACAUGAGGAUCACCCAUGUGACCAGUGAUGCCCUUGGCAGCAUGGUCGGUGCA [Same State - Theophylline B (Freestyle 23)] | 0.0612
CCUGAUAACUGAAGGAGCGAGAAACCCUACAUGAGGAUCACCCAUGUAUACACGGGAACUUCUCAGGUAGGUCGCAGUUUGUCAG [Adiso] | 0.0715
